Results from PMC11417181.

Experiments:
C3b C3b (Homo sapiens) = C3b C3b (Homo sapiens) (UniProt P01024); conditions: cited from earlier work
[1] = biological target: SCR-17/18H deglycosylated with PNGase F (human); test: AUC; sedimentation velocity of the SCR fragments, 20 °C, 50,000 rpm, Hepes buffer (10 mM Hepes, 137 mM NaCl, pH 7.4), c(s) analysis in SEDFIT, proportions of monomer and dimer from peak integration; monomer to dimer

Sequence of C3b C3b (Homo sapiens) (P01024 566-670): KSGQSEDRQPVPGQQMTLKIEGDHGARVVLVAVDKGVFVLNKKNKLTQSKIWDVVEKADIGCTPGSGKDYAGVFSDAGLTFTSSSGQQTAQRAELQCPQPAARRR
Sequence of Complement factor H (P08603 19-1231): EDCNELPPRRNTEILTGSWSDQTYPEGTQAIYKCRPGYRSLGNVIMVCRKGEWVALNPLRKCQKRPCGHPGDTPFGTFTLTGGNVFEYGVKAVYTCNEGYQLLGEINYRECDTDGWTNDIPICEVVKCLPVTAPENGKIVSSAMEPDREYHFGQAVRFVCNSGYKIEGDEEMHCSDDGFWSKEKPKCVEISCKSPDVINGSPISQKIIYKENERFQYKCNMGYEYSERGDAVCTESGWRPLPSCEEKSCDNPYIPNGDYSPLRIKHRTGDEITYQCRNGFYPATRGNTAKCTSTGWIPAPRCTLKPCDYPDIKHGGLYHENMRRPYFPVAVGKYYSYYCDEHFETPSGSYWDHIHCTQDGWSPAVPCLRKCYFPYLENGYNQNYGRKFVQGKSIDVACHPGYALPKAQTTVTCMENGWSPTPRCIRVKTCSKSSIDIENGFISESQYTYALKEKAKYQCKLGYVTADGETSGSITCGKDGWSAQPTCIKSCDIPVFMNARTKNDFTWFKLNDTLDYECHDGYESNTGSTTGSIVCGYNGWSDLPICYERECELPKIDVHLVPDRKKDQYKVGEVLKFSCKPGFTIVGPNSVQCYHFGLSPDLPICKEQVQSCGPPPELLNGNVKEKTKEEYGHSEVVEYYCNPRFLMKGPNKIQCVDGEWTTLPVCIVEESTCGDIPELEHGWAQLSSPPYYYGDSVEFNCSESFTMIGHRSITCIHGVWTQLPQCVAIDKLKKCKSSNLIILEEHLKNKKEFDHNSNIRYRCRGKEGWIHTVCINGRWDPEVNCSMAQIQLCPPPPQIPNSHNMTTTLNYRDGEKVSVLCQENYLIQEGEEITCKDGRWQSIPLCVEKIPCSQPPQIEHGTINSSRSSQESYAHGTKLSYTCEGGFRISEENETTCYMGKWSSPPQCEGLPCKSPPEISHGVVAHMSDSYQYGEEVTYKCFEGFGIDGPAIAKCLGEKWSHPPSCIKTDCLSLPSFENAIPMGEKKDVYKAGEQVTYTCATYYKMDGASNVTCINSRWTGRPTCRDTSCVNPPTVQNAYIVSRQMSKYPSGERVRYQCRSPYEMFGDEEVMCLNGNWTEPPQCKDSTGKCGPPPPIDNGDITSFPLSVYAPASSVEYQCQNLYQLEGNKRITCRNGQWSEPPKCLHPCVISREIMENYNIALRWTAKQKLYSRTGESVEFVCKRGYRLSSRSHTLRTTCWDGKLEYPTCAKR

Substance	Kd (C3b C3b (Homo sapiens)) [µM]	proportion of dimer [1] [%]	stoichiometry N [1]
Complement factor H (from UniProt P08603)	1.06		
SCR-17/18H deglycosylated with PNGase F (domain or fragment)		16	2
